In PMC6528599:

Target: T1, GlaR (YugA) (Lactococcus lactis IL1403) (UniProt Q7DAT6)
T1 sequence: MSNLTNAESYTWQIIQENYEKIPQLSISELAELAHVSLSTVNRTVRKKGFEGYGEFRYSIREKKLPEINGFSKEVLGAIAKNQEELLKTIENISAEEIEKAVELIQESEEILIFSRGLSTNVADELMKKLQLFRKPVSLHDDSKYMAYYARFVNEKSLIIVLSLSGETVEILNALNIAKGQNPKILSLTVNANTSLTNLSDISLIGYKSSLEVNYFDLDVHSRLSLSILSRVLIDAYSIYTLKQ
Assay: EMSA
Details: EMSA: 1 nM DNA, 10 mM Tris-HCl pH 8.5, 10 mM MgCl2, 100 mM KCl, 0.1 mg/ml BSA (printed as 10x binding buffer), 250 mM galactose, 20 ul, 20 min at 37 C; 5% PAGE …

| Sequence | binding |
| --- | --- |
| GGACATTGGCATCTACTTGAAGAAGAAGCAGGAACATGGTTAAATATTGACGGATTCCATATGGGTGTAGGTGGAGATGATTCATGGAGTCCAAGTGTCGCTCAGGAATATTTATTGACAAAGGGAAATTATCATTATGAAGTTAGTTTTAAATTAACGTGATGATCCAAATTTTCAAGAATTTGATATAATATAGAGAAAATGGAGGTTCTTATGACGGTTTTAGTTCTTGGTGGAGCAGGATACGTGGGAAGTCACGCGGTAGATATGCTTCTTAAACGTGGTTACGATGTGGCAG (double strand) [galE upstream region] | no binding |
| CCATTACATTTTCATGACGATTACATACAAAAAAAGCTCAAAAATTTGAGCTTTTTTTTTCGAATTTTAGATAATTAACTAGTAACCTTTTGGATGACTTTGGTGCCATTTCCAAGCGTTCGTAATAATGTGCTCTAAATCATTTTGTGCTTTCCAACCCAAAATTTCACCAGCTTTTGTTGAATCAGCAACCAGCTCATCTGGGTCTCCTGCACGGCGTTCACCCATTTGGCTTGGAATTTCTTTACCTGTTACTTTTCGTGCGGTTTCAAGCACTTCAAG (double strand) | no binding |
